Reference: publication PMC4146615

Tests used:
[1] = target: T1, SoxR (Streptomyces coelicolor) (UniProt Q9S255); assay: EMSA; conditions: EMSA: 10 mM Tris-HCl pH 8, 75 mM KCl, 0.1 mM DTT, 10% glycerol, 2 mM MgCl2, 0.1 ug poly(dI)-poly(dC), 2 mM dAMP, 30 uL, 6 fmol probe, SoxR 0-20 nM, 15 min …
T1 sequence: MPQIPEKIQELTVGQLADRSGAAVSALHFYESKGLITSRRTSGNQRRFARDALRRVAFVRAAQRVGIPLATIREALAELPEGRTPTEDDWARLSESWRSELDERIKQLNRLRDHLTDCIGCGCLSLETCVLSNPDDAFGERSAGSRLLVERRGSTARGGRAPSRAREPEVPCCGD

[2] = target: T1, SoxR (Streptomyces coelicolor); assay: competition; conditions: EMSA: 10 mM Tris-HCl pH 8, 75 mM KCl, 0.1 mM DTT, 10% glycerol, 2 mM MgCl2, 0.1 ug poly(dI)-poly(dC), 2 mM dAMP, 30 uL, 6 fmol probe, SoxR 0-20 nM, 15 min …

**Q.** What does the source list for “GACAGTCGTAGGCGGTTCCGCCCCTCCATACGTCACCCCTTGCCGACCGGCCCGACTCCACCGCGGACGACGGACGAGCCTTGACCTCGACCGGACTTGAGGTTGGAGGCTGGGCGGGATGTCGCCTCCAGTGAAGGGTGCTGCTCATGCATGCGATCCACGTGGCCTCGTTCGGTGCTCCGGACGTGCTGAGCCTGGTC (double strand) [SCO0320ext promoter probe]”?
**A.** K_half [1]: binds; binding [2]: binds

**Q.** Which Kd [1] does the source give for SCO0321 upstream probe here?
**A.** > 20 nM

**Q.** How did the Kd [1] turn out when SCO1177 upstream probe was run?
**A.** > 20 nM

**Q.** Which Kd [1] does the source give for ecaD (SCO4266) promoter probe here?
**A.** 5 nM
